Measurements taken from patent US9327008B2, “Cell-permeant peptide-based inhibitor of kinases” (Purdue Research Foundation, priority 2008, dated 2016).

Key:
Type in all cases: biochemical
Pim-1 = biological target: T1, Pim-1 (Homo sapiens, UniProt P11309); test: Millipore radiometric kinase activity assay, Pim-1 (h)
T1 construct: purchased Millipore (radiometric assay service)
Description: (§1) A commercial radiometric assay service (Millipore, Billerica, Mass.) was used to test the specificity and potency of peptides containing a coupled transduction domain and therapeutic domain, hereinafter “complete peptides”). In these assays, if the kinase is not inhibited by an inhibitor peptide, a positively charged substrate is phosphorylated with a radiolabeled phosphate group from an ATP.
(§2) In a final reaction volume of 25 μL, Pim-1 (h) (5-10 mU) is incubated with 8 mM MOPS pH 7.0, 0.2 mM EDTA, 100 μM […] [SEQ ID NO: 59], 10 mM MgAcetate and [γ-^33P-ATP] (specific activity approx. 500 cpm/pmol, concentration as required). The reaction is initiated by the addition of the MgATP mix. After incubation for 40 minutes at room temperature, the reaction is stopped by the addition of 5 μL of a 3% phosphoric acid solution. 10 μL of the reaction is then spotted onto a P30 filtermat and washed three times for 5 minutes in 75 mM phosphoric acid and once in methanol prior to drying and scintillation counting.
(§3) IC50 values for inhibitor peptides were determined using Millipore's IC50Profiler Express service. The IC50 value was estimated from a 10-point curve of one-half log dilutions. For peptides tested for specificity, the concentration of the peptides that inhibited approximately 95% of MK2 activity was chosen to profile against a battery of kinases related to MK2, cell viability, or human disease from MilliporeKinaseProfiler service. In both assays, compounds were supplied in dimethylsulfoxide (DMSO). Every kinase activity measurement was conducted in duplicate.
(§4) Therapeutic inhibitor peptides were assayed for activity against human kinases related to MK2, cell viability, or human disease. The assays were performed using concentrations of therapeutic inhibitor peptides that yielded 2% to 8% of normal MK2 activity. Error is reported as the standard deviation between 2 samples, and “c” is rat AMPK whereas all other kinases used are human kinases.

DYRK2 = biological target: T2, DYRK2 (Homo sapiens, UniProt Q92630); test: Millipore radiometric kinase activity assay, DYRK2 (h)
T2 construct: purchased Millipore (assay service)
T2 sequence (Q92630 1-601): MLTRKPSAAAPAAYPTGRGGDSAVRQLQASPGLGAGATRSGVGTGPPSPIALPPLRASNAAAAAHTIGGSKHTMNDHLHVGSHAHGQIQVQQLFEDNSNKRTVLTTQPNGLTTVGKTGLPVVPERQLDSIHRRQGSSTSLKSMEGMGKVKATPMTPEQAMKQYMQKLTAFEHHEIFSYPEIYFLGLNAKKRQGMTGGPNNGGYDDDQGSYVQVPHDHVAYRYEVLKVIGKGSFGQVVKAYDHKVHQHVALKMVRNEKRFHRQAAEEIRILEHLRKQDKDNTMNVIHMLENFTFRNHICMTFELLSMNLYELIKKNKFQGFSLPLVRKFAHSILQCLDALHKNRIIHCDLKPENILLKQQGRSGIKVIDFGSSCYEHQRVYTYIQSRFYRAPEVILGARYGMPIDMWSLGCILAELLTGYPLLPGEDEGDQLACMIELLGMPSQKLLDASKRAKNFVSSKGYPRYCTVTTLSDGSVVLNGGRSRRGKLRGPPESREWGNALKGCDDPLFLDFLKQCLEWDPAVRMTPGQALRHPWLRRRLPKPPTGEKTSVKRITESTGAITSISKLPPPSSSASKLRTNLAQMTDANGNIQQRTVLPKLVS
Description: as §1
In a final reaction volume of 25 μL, DYRK2 (h) (5-10 mU) is incubated with 8 mM MOPS pH 7.0, 0.2 mM EDTA, 2 mg/mL casein, 10 mM MgAcetate and [γ-^33P-ATP] (specific activity approx. 500 cpm/pmol, concentration as required). The reaction is initiated by the addition of the MgATP mix. After incubation for 40 minutes at room temperature, the reaction is stopped by the addition of 5 μL, of a 3% phosphoric acid solution. 10 μL of the reaction is then spotted onto a P30 filtermat and washed three times for 5 minutes in 75 mM phosphoric acid and once in methanol prior to drying and scintillation counting.
as §3, §4

MAPK1 = biological target: T3, MAPK1 (Homo sapiens, UniProt P27361); test: Millipore radiometric kinase activity assay, MAPK1 (h)
T3 construct: purchased Millipore (radiometric assay service)
T3 sequence (P27361 whole entry): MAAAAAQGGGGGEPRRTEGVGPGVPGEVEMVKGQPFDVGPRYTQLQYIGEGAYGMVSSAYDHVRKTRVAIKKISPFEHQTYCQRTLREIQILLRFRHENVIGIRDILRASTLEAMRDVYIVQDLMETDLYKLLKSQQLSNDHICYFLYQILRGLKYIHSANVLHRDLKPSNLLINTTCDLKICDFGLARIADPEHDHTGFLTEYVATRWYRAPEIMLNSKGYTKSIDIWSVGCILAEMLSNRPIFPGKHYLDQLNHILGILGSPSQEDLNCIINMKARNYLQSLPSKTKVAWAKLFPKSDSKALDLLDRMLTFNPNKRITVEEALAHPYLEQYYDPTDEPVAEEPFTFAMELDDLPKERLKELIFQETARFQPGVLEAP
Description: as §1
(§5) In a final reaction volume of 25 μL, MAPK1 (h) (5-10 mU) is incubated with 25 mM Tris pH 7.5, 0.02 mM EGTA, 250 μM peptide, 10 mM MgAcetate and [γ-^33P-ATP] (specific activity approx. 500 cpm/pmol, concentration as required). The reaction is initiated by the addition of the MgATP mix. After incubation for 40 minutes at room temperature, the reaction is stopped by the addition of 5 μL of a 3% phosphoric acid solution. 10 μL of the reaction is then spotted onto a P30 filtermat and washed three times for 5 minutes in 75 mM phosphoric acid and once in methanol prior to drying and scintillation counting.
as §3, §4

Syk = biological target: T4, Syk (Homo sapiens, UniProt P43405); test: Millipore radiometric kinase activity assay, Syk (h)
T4 construct: purchased Millipore (radiometric assay service)
Description: as §1
as §5, with “μL, Syk” for “μL, MAPK1”, “with 50” for “with 25”, “7.5, 0.1” for “7.5, 0.02”, “EGTA, 0.1 mM Na3VO4, 0.1% β-mercaptoethanol, 0.1 mg/mL poly(Glu, Tyr) 4:1,” for “EGTA, 250 μM peptide,”, “and [γ-^33PATP]” for “and [γ-^33P-ATP]”, “a Filtermat A” for “a P30 filtermat”
as §3, §4

Rsk2 = biological target: T5, Rsk2 (Homo sapiens, UniProt P51812); test: Millipore radiometric kinase activity assay, Rsk2 (h)
T5 construct: purchased Millipore (radiometric assay service)
T5 sequence (P51812 whole entry): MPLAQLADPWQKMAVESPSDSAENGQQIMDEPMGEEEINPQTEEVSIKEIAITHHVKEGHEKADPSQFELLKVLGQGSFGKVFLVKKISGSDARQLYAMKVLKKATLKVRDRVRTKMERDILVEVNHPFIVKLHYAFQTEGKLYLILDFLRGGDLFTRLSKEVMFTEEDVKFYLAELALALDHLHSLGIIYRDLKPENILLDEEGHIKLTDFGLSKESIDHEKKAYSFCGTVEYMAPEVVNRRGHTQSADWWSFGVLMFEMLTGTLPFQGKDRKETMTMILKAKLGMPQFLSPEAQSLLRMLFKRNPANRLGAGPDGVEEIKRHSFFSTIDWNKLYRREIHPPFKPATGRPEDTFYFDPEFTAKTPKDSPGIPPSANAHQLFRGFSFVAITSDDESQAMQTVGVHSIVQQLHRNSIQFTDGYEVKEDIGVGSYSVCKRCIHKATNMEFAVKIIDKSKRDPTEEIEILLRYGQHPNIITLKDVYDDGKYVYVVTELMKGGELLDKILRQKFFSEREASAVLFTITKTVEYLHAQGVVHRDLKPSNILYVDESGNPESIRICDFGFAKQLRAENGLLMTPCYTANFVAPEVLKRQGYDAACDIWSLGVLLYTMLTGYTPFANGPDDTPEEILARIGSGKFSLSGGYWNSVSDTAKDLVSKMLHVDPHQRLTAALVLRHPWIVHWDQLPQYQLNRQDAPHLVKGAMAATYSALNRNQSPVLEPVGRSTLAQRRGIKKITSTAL
Description: as §1
as §2, with “μL, Rsk2” for “μL, Pim-1”, “EDTA, 30” for “EDTA, 100”, “NO: 64],” for “NO: 59],”, “μL it” for “μL”, “10 μL,” for “10 μL”
as §3, §4

T1 sequence (P11309 whole entry): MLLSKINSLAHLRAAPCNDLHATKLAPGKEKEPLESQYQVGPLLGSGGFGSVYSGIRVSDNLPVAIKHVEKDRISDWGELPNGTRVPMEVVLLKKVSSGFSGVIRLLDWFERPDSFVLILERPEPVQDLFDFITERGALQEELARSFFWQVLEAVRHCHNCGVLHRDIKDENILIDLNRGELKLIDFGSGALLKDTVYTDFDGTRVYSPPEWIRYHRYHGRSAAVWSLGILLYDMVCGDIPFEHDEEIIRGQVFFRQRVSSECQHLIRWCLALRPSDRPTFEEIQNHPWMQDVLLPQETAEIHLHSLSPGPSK

| Sequence | Pim-1 Kinase Activity (%) (+SD %) (Pim-1; peptide 30 μM) | Pim-1 Kinase Activity (%) (+SD %) (Pim-1; peptide 100 μM) | DYRK2 Kinase Activity (%) (+SD %) (DYRK2; peptide 30 μM) | DYRK2 Kinase Activity (%) (+SD %) (DYRK2; peptide 100 μM) | MAPK1 Kinase Activity (%) (+SD %) (MAPK1; peptide 30 μM) | MAPK1 Kinase Activity (%) (+SD %) (MAPK1; peptide 100 μM) | Syk Kinase Activity (%) (+SD %) (Syk; peptide 30 μM) | Syk Kinase Activity (%) (+SD %) (Syk; peptide 100 μM) | Rsk2 Kinase Activity (%) (+SD %) (Rsk2; peptide 30 μM) | Rsk2 Kinase Activity (%) (+SD %) (Rsk2; peptide 100 μM) |
| --- | --- | --- | --- | --- | --- | --- | --- | --- | --- | --- |
| WLRRIKAWLRRIKALNRQLGVAA | 5 (1) % | 1 (0) % | 93 (8) % | −11 (1) % | 121 (5) % | 104 (3) % | 19 (3) % | 38 (9) % | 14 (5) % | −1 (1) % |
| KAFAKLAARLYRKALARQLGVAA |  | 1 (2) % |  | −10 (0) % |  | 108 (1) % |  | 4 (4) % |  | 6 (1) % |
